The values below are quoted from earlier work in PMC3078175.

This data set has as its target IL-17RB (Homo sapiens) (UniProt Q9NRM6).

pKd: −log10 of the molar value.

UniProt Q9NRM6, sequence (Q9NRM6 18-292): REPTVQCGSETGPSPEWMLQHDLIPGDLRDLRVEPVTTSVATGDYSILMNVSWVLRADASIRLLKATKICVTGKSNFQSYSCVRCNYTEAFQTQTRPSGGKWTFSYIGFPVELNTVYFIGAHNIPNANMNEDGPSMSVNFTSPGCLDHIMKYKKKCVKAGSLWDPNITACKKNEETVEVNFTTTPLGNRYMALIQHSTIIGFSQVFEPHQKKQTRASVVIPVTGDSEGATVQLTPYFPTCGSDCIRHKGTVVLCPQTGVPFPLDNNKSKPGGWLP

With IL-17B (from UniProt Q9UHF5), the pKd is 8.12.
